Experiment [1] deals with TcdB2-TccC3 from Photorhabdus luminescens (Pl-TcdB2-TccC3) (Photorhabdus luminescens) (UniProt Q8GF99). In words: BLI.
In experiment [2] the target is XptA1 from Xenorhabdus nematophila (Xn-XptA1) (Xenorhabdus nematophila). In words: cryo-EM structure.

Substance “TcdA1 from Photorhabdus luminescens (Pl-TcdA1), Q9RN43 1-2516” yielded a Kd in experiment [1] of 0.63 nM.

Substance “TcdA4 from Morganella morganii (Mm-TcdA4) (natural protein)” displayed a Kd in experiment [1] of 11.3 nM.

In turn, “XptA1 from Xenorhabdus nematophila (Xn-XptA1) (natural protein)” came in with a Kd in experiment [1] of 1.99 nM. This substance had a stoichiometry N in experiment [2] of 5.

These data come from paper PMC6795518.
